In test [1] the target is dengue virus serotype DV-4 (live virus, representative strain not named; E protein) (dengue virus serotype DV-4). Nature of the test: cell-based or functional assay.
Test [2] deals with T1, EDIII-DV1 (E protein domain III of dengue virus serotype DV-1) (dengue virus serotype DV-1, UniProt P17763 573-680).
T1 construct: also called DENV-1; EDIII of DV-1
T1 chain: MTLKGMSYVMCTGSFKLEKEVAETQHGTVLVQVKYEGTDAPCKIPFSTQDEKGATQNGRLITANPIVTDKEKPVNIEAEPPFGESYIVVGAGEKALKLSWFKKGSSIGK

In test [3] the target is T2, EDIII-DV3 (E protein domain III of dengue virus serotype DV-3) (dengue virus serotype DV-3, UniProt P27915 571-678).
T2 construct: also called DENV-3; EDIII of DV-3

The target of test [4] is T1, EDIII-DV1 (E protein domain III of …). Nature of the test: competition ELISA. In general terms: An ELISA detects its analyte on a solid surface through an enzyme-linked reagent.
Test [5] has as its target T2, EDIII-DV3 (E protein domain III of …). Nature of the test: competition ELISA.
In test [6] the target is T3, Singapore/2008 (serotype II EDIII).
T3 construct: also called ED3-DV2/Sing08; DENV-2 Sing
Nature of the test: Kd table, method not stated; Ag DENV-2 Sing.

Test [7] deals with T4, Peru/1995 (serotype II EDIII).
T4 construct: also called ED3-DV2/Peru95; DENV-2 Peru
Nature of the test: Kd table, method not stated; Ag DENV-2 Peru.

The target in test [8] is T5, Nicaragua/2010 (serotype III EDIII).
T5 construct: also called ED3-DV3/Nicaragua10; DENV-3 Nic
T5 E protein domain III (EDIII): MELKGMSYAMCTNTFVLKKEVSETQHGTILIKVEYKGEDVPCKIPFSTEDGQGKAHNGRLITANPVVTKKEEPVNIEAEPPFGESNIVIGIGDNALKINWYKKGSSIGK

The target in test [9] is T6, New Guinea/1944 (NGC)* (serotype II EDIII) (Dengue virus 2).
T6 construct: isolated EDIII protein; also called EDIII of DENV-2 NGC
As to the kind of experiment: Kd table, method not stated; Ag DENV-2 NGC.

Test [10] has as its target T7, Philippines/1956 (H87)* (serotype III EDIII) (Dengue virus 3).
T7 construct: isolated EDIII protein

For test [11], the target named is T8, Singapore/2009 (serotype III EDIII).
T8 construct: also called ED3-DV3/Sing09; DENV-3 Sing
T8 E protein domain III (EDIII): T5 E protein domain III (EDIII) with T12Q, T14A, V40A, N94K

For test [12], the target named is ED3-DV4/H241/Phil56 (EDIII of DENV-4 strain H241) (dengue virus serotype DENV-4, strain …, UniProt Q58HT7 572-679). As to the kind of experiment: Kd table, method not stated; Ag DENV-4 Phil.
Test [13] deals with T9, New Caledonia/2009 (serotype IV EDIII).
T9 construct: also called ED3-DV4/NewCal09; DENV-4 NC
T9 E protein domain III (EDIII): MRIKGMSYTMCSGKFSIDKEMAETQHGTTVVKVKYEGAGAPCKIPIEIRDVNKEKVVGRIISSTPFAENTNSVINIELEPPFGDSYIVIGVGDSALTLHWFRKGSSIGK
Nature of the test: Kd table, method not stated; Ag DENV-4 NC.

The target of test [14] is T10, Mexico/1977 (BC287/97)* (serotype IV EDIII) (Dengue virus 4).
T10 construct: isolated EDIII protein; also called EDIII of DENV-4 Mexico/1997 (BC287/97); DENV-4 BC2
Nature of the test: Kd table, method not stated; Ag DENV-4 BC2.

Test [15] concerns the target T11, Singapore/2010 (serotype IV EDIII).
T11 construct: also called ED3-DV4/Sing10; DENV-4 Sing
T11 E protein domain III (EDIII): T9 E protein domain III (EDIII) with I44V, I74T
Nature of the test: Kd table, method not stated; Ag DENV-4 Sing.

In test [16] the target is T12, EDIII-DV2 (E protein domain III of dengue virus serotype DV-2) (dengue virus serotype DV-2, UniProt P14337 573-677).
T12 construct: also called DENV-2; EDIII of DV-2

In test [17] the target is T1, EDIII-DV1 (E protein domain III of …).
Test [18] deals with T2, EDIII-DV3 (E protein domain III of …). The source holds these as a separate data set.
Test [19] addresses T13, EDIII-DV4 (E protein domain III of dengue virus serotype DV-4) (dengue virus serotype DV-4, UniProt P09866 572-679).
T13 construct: also called DENV-4

In test [20] the target is T13, EDIII-DV4 (E protein domain III of …). The source holds these as a separate data set.
For test [21] the target is unchanged. As to the kind of experiment: affinity for EDIII-DV-4, tables of FIG. 5; method not stated.
Test [22] has as its target T12, EDIII-DV2 (E protein domain III of …). As to the kind of experiment: competition ELISA.
The target of test [23] is T2, EDIII-DV3 (E protein domain III of …). The source holds these as a separate data set.
Test [24] deals with T13, EDIII-DV4 (E protein domain III of …). The source holds these as a separate data set.
The target is the same in test [25]. Nature of the test: competition ELISA; column 'EDIII-DV4'.
Test [26] shares this target. As to the kind of experiment: competition ELISA; column 'EDIII-DV4 [1/7]'.
Test [27] has the same target. The source holds these as a separate data set.

Numbering of substitutions follows the chain as printed. Names and notes keep the numbering of the source. Values joined by “and” are separate entries in the source; they are usually repeats but may differ in a detail not shown here. Identical values can stand only once. Like-named read-outs stand apart in the source and are kept apart here.

B1: antibody B11 (antibody, V domains shown)
VH: VKLLEQSGAELVKPGASVRLSCTAGFNIKDTYMSWVKQRPEQGLEWIGRIDPENGDTKYDPKFQGKATITADTSSNTAYLHLSSLTSGDTAVYYCSRGWEGFAYWGQGTLVTVSA
VL: ELVMTQTPASLAVSLGQRATISCRASENVDKYGNSFMHWYQQKAGQPPKLLIYRASELQWGIPARFSGSGSRTDFTLTINPVEADDVATYFCQRSNEVPWTFGGGTKLEIK
On to B1, for which the “IC50, focus reduction neutralization test (FRNT), DV-4” value in test [1] fell in the range of 0.5 to 1.4 µg/mL. Moreover, the Kd (commonly the equilibrium constant for the complex coming apart) is below 0.1 nM in [2] and 2.98 nM in [3].

B2: antibody A11 (antibody, V domains shown)
VH: VKLLEQSGAELVKPGASVRLSCTASGFNIKDTYMSWVKQRPEQGLEWIGRIDPENGDTKYDPKFQGKATITADTSSNTAYLHLSSLTSGDTAVYYCSRGWEGFAYWGQGTLVTVSA
VL: B1 VL
notes: also called mAb A11; 4E5A
For the molecule B2, the Kd was 0.35 nM and 0.269 nM in test [4]; 16.8 nM and 18 nM in test [5]; below 0.1 nM in test [6]; 0.39 nM in test [7]; 32.1 nM in test [8]; below 0.1 nM in test [9]. Also, the Kd in test [10] worked out at 14.1 nM; in test [11] it was 7.5 nM; in test [12] it was 5080 nM; in test [13], 202 nM; in [14], 86.2 nM; in [15], 136 nM. Besides, the dissociation constant (Kd) in test [2] is 0.269 nM; in test [3], 18 nM; in test [16], below 0.1 nM.

B3: mouse mAb 4E11 (antibody, V domains shown)
VH: B2 VH with E54A
VL: B1 VL with K31R, E57N, Q59E, W60S
notes: also called antibody 4E11
Turning to B3, the Kd was 5.2 nM in [9]; 21.8 nM in test [10]; 0.33 nM in test [17]; 21.8 nM in [18]; 40800 nM in [14].

B4: antibody B48 (antibody, V domains shown)
VH: QVQLVQSGAEVKKPGASVKVSCKAGFNIKDTYMSWVRQAPEQGLEWMGRIDPENGDTKYDPKLQGRVTMTADTSTNTAYMELRSLRSDDTAVYYCARGWEGFAYWGQGTLVTVSS
VL: DIVMTQSPASLAVSLGERATISCRASENVDKYGNSFMHWYQQKPGQPPKLLIYRASELQWGVPDRFSGSGSGTDFTLTISSLQAEDVAVYYCQRSNEVPWTFGQGTKLEIK
notes: also called mAb B48
Turning to B4, the Kd in test [19] was found to be 19.3 nM; in test [2] it was 0.123 nM; in test [20] it was 27.6 nM; in test [3], 8 nM.

B5: antibody D48 (antibody, V domains shown)
VH: VKLLEQSGAEVKKPGASVKVSCKASGFNIKDVYMSWVRQAPEQGLEWMGRIDPENGDTKYDPKLQGRVTMTADTSTNTAYMELRSLRSDDTAVYYCARGWEGFAYWGQGTLVTVSS
VL: B4 VL
In test [19], B5 had a Kd of 7.49 nM. In addition, in test [21], the “fold improvement in affinity relative to an antibody with a fully humanized N-terminus” value is around 2 fold.

B6: antibody C98 (antibody, V domains shown)
VH: B5 VH with V1Q, K2V, L3Q, E5V, A97V
VL: B4 VL
Consider B6, for which the Kd in test [4] is below 0.1 nM; in [5], 1.29 nM; in [22], below 0.1 nM; in [23], 1.21 nM.

B7: A68 (A48 + A98V) (antibody, V domains shown)
VH: B5 VH with V1Q, K2V, L3Q, E5V, V32T, A97V
VL: B4 VL
On to B7, for which the figures for the Kd in test [20], in test [3] and in [16] were 13.1 nM, 3 nM and below 0.1 nM, respectively.

B8: antibody D98 (antibody, V domains shown)
VH: B5 VH with V1Q, K2V, L3Q, E5V, G26A
VL: B4 VL
The molecule B8 had a Kd in [24] of 16.9 nM.

B9: antibody D118 (antibody, V domains shown)
VH: B5 VH with V1Q, K2V, L3Q, E5V, F27W
VL: B4 VL
As to B9, the Kd in test [4] was below 0.1 nM; in test [5] it was 9.07 nM; in test [25], 24.4 nM; in [26], 12.6 nM; in test [27], 12.6 nM.

The record behind these values is patent US20240425569A1 (VISTERRA, published 2024).
